The text below walks through data of patent US20040102610A1 (Genentech, published 2004).

The target in series [1] is T1, GST-hSu(fu) (UniProt Q9UMX1).
T1 sequence: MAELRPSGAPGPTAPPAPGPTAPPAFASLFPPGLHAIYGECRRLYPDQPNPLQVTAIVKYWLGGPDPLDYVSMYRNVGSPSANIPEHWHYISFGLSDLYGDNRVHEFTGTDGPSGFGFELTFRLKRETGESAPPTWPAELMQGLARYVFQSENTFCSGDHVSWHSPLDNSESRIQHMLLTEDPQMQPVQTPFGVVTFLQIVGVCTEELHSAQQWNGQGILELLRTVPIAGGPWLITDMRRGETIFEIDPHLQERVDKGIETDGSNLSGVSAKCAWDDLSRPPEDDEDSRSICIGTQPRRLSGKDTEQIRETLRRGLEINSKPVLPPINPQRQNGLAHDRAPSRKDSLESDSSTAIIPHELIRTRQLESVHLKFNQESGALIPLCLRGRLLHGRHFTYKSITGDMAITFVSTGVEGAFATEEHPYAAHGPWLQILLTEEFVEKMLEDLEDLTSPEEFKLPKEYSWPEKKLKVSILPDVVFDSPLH

Series [2] has as its target T2, hfused C-Flag (human, UniProt Q9NRP7 1-1315).
T2 construct: also called human fused C-Flag
T2 sequence: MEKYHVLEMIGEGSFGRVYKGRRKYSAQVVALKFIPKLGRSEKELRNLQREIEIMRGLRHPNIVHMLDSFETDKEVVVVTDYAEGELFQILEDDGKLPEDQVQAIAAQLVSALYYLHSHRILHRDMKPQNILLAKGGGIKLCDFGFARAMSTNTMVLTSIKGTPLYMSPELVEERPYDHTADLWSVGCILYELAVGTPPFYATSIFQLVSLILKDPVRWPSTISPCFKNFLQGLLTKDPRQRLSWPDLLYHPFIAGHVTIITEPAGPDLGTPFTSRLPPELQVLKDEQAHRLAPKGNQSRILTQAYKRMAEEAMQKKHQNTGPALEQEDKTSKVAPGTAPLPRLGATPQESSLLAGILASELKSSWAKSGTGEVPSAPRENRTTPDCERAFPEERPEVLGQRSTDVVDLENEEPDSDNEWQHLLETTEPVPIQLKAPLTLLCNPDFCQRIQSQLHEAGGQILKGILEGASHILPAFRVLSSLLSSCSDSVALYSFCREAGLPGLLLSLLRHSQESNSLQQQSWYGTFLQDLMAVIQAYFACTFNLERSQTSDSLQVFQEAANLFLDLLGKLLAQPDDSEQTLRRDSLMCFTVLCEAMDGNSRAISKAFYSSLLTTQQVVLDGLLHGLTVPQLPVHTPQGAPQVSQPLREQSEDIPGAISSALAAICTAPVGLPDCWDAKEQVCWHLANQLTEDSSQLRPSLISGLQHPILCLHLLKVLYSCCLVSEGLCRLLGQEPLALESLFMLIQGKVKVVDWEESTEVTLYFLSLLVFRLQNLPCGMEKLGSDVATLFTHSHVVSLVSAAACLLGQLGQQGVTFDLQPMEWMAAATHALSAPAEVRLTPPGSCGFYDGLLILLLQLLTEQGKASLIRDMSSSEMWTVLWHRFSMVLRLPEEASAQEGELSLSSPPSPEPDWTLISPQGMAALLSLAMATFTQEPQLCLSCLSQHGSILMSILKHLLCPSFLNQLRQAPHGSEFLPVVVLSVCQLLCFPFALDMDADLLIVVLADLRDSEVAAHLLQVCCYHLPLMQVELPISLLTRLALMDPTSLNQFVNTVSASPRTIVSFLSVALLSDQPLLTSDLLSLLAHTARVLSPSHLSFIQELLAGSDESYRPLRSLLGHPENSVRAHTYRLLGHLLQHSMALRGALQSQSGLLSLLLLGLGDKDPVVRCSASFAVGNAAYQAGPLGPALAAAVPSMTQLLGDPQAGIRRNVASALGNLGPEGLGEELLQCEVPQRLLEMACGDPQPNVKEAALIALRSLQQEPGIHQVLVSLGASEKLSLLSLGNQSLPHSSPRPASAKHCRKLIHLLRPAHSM
The experiment in a line: 293 cells, anti-Myc or anti-Flag IP, immunoblot. The source says:
(§1) FIG. 14 describes the biochemical interaction of hFu, hSu(fu) and hGli-1. FIG. 14(A) depicts the interaction of hFu with hSu(fu) in mammalian cells. 293 cells were transfected with hfused and hSu(fu) C-Flag or hfused C-Flag and hSu(fu) C-Myc either alone or in combination. Cell lysates were subjected to anti-Flag immunoprecipitation, and co-precipitating proteins were detected by immunoblotting. FIG. 14(B) depicts the interaction of hfused with hGli-1 in mammalian cells. 293 cells were transfected with hfused C-Flag or N-Myc hGli-1 both alone or in combination, and immunoprecipitated with anti-Myc or anti-Flag antibodies. Proteins were detected by immunoblotting. […] 293 cells were transfected with N-Myc hGli-1, hSu(fu) C-Flag and increasing amounts of hfused. The amount of hfused and hSu(fu) bound to hGli-1 was determined by anti-Myc immunoprecipitation and immunoblotting. Protein expression was analyzed by immunoblotting aliquots of total cell lysates (bottom panel).
(§2) For immunoprecipitation experiments human embryonic kidney 293 cells or C3H10T1/2 cells (ATCC 226-CCL) were transiently transfected with the various expression plasmids in 10 cm plates with lipofectamine (Gibco […]). For every transfection, the total amount of DNA was normalized with an expression plasmid encoding EGFP. […]

The target in series [3] is T3, human fused (human, UniProt Q9NRP7 1-1315).
T3 construct: The same id is used for endogenous human fused of 293 cells in the GST-hSu(fu) pull-down; also called hfused; hFu
T3 sequence: T2 sequence
Kind of series: FIG. 14C: 293 cells transfected with N-Myc hGli-1, hSu(fu) C-Flag and increasing amounts of hfused.
Text: as §1, §2

Turning to purified PKAc (Upstate biotechnology), the “in vitro kinase assay with [γ-32P]ATP” value in series [1] is listed as “when tested in vitro, GST-hSu(fu) was highly phosphorylated by purified PKAc”.

B1: N-Myc hGli-1 (other, human, UniProt P08151 1-1106, looked up, not shown: small tags and cut ends)
chain: MFNSMTPPPISSYGEPCCLRPLPSQGAPSVGTEGLSGPPFCHQANLMSGPHSYGPARETNSCTEGPLFSSPRSAVKLTKKRALSISPLSDASLDLQTVIRTSPSSLVAFINSRCTSPGGSYGHLSIGTMSPSLGFPAQMNHQKGPSPSFGVQPCGPHDSARGGMIPHPQSRGPFPTCQLKSELDMLVGKCREEPLEGDMSSPNSTGIQDPLLGMLDGREDLEREEKREPESVYETDCRWDGCSQEFDSQEQLVHHINSEHIHGERKEFVCHWGGCSRELRPFKAQYMLVVHMRRHTGEKPHKCTFEGCRKSYSRLENLKTHLRSHTGEKPYMCEHEGCSKAFSNASDRAKHQNRTHSNEKPYVCKLPGCTKRYTDPSSLRKHVKTVHGPDAHVTKRHRGDGPLPRAPSISTVEPKREREGGPIREESRLTVPEGAMKPQPSPGAQSSCSSDHSPAGSAANTDSGVEMTGNAGGSTEDLSSLDEGPCIAGTGLSTLRRLENLRLDQLHQLRPIGTRGLKLPSLSHTGTTVSRRVGPPVSLERRSSSSSSISSAYTVSRRSSLASPFPPGSPPENGASSLPGLMPAQHYLLRARYASARGGGTSPTAASSLDRIGGLPMPPWRSRAEYPGYNPNAGVTRRASDPAQAADRPAPARVQRFKSLGCVHTPPTVAGGGQNFDPYLPTSVYSPQPPSITENAAMDARGLQEEPEVGTSMVGSGLNPYMDFPPTDTLGYGGPEGAAAEPYGARGPGSLPLGPGPPTNYGPNPCPQQASYPDPTQETWGEFPSHSGLYPGPKALGGTYSQCPRLEHYGQVQVKPEQGCPVGSDSTGLAPCLNAHPSEGPPHPQPLFSHYPQPSPPQYLQSGPYTQPPPDYLPSEPRPCLDFDSPTHSTGQLKAQLVCNYVQSQQELLWEGGGREDAPAQEPSYQSPKFLGGSQVSPSRAKAPVNTYGPGFGPNLPNHKSGSYPTPSPCHENFVVGANRASHRAAAPPRLLPPLPTCYGPLKVGGTNPSCGHPEVGRLGGGPALYPPPEGQVCNPLDSLDLDNTQLDFVAILDEPQGLSPPPSHDQRGSSGHTPPPSGPPNMAVGNMSVLLRSLPGETEFLNSSA
notes: Expressed in C3H10T1/2 or 293 cells; also called human Gli-1
B1: the binding result in series [2] and in series [3] was “binds” throughout.
